Experiment [1] addresses CD3 (CD3/TCR complex) on CD4+ and CD8+ T cells of patients (human) (UniProt P07766). In words: flow cytometry of CD4+ T cells, free CD3 sites by biotinylated TRX4; Example 3 Cohort 3, 2 hours after 0.5 mg infusion. On the technique in general: Flow cytometry measures light scatter and fluorescence of single cells or particles in a stream.
Experiment [2] shares this target. Kind of experiment: flow cytometry of CD4+ T cells, free CD3 sites by biotinylated TRX4; Example 4 Cohort A, 0.1 mg.
Experiment [3] shares this target. Kind of experiment: flow cytometry of CD4+ T cells, anti-human IgG; Example 4 Cohort A*, end of 0.15 mg infusion.
Experiment [4] shares this target. Kind of experiment: flow cytometry of CD4+ T cells, anti-human IgG; Example 4 Cohort B, end of 0.1 mg infusion.
Experiment [5] has the same target. In words: flow cytometry of CD4+ T cells, anti-human IgG; Example 3 Cohort 2 (0.5 mg x3), 2 hours after end of dosing.
Experiment [6] shares this target. In words: flow cytometry of CD4+ T cells, free CD3 sites by biotinylated TRX4; Example 4 Cohort B, 0.3 mg.
Experiment [7] has the same target. Kind of experiment: flow cytometry of CD4+ T cells, free CD3 sites by biotinylated TRX4; Example 4 Cohort A*, 0.1 mg.
Experiment [8] has the same target. Kind of experiment: flow cytometry of CD4+ T cells, free CD3 sites by biotinylated TRX4; Example 4 Cohort B, 2 hours after last infusion.
Experiment [9] shares this target. In words: flow cytometry of CD4+ T cells, free CD3 sites by biotinylated TRX4; Example 4 Cohort A, day after last infusion.

UniProt P07766, sequence (P07766 23-207, chain 1 of 3): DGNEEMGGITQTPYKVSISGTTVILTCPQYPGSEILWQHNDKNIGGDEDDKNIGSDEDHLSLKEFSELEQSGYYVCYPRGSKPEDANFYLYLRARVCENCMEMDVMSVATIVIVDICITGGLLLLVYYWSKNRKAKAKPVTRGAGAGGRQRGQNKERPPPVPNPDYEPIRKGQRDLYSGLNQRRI
UniProt P07766, sequence (chain, as listed by the source, chain 2 of 3): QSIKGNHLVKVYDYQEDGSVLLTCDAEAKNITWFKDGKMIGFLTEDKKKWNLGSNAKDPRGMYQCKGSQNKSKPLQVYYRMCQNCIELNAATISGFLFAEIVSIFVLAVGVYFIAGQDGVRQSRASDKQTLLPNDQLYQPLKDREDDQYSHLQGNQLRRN
UniProt P07766, sequence (chain, as listed by the source, chain 3 of 3): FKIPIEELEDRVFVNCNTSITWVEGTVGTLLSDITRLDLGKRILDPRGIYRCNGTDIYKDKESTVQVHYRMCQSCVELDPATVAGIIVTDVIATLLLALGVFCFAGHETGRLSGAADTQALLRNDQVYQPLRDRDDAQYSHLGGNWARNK

On to TRX4 antibody, for which the percent saturation of CD3 in experiment [1] is 45%; in experiment [2], 40%; in experiment [6], 80%; in experiment [7] it was 70%; in experiment [8] it was 70%; in experiment [9], 35%. For the same substance, the cell-bound TRX4 (MESF of anti-human IgG) in [3] worked out at 800000 MESF units; in experiment [4], 2e+06 MESF units; in experiment [5] it was 400000 MESF units.

Source of the values: US20090258001A1.
